The subject of the data set is MS2 coat protein. As to the kind of experiment: apparent KD of MS2 coat protein; designed switch direction (-1 OFF switch, 1 ON switch): -1; higher = weaker reporter binding. A digest of the protocol:
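The buffer was Tris-HCl pH 7.5 with KCl, MgCl2, BSA, DTT, tRNA and Tween-20. In it, SNAP-549-labelled MS2 coat protein was titrated in doubling steps from 0.7 or 1.5 nM to 3 µM over chip-bound RNA switches transcribed by stalled E. coli RNA polymerase on Illumina chips. Apparent KD is the per-design median over clusters of curve fits to normalised fluorescence.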

The mark [1] stands for this setting: input ligand: microRNA oligo, concentration not stated.
Where [2] appears, read: Eterna round: R95, input ligand: microRNA oligo, concentration not stated.
Setting [3] is: Eterna round: R95, input ligand: FMN 200 uM.
[4] abbreviates: Eterna round: R95, input ligand: none.

Data on 35 sequences can be found in the supplement of paper PMC9170038.

Consider “UCAGGUGCAGGAUAUACAUGAGGAUCACCCAUGUGGUCACGUGACGAUAGUCACGAAUGUAGAAGGGCACCUGA [E3/3-D1] (Eterna round: R97, puzzle: Exclusion 3)”, for which the “apparent KD of MS2 coat protein” value is, setting by setting: (input ligand: FMN 200 uM) 60.1 nM; (input ligand: none) 958 nM. The matching figures for “UCAGUGUUAGGAUAUCGAGCAAGUUGAAUAUUUGUCUGUAUCGAGAAGGGACAUGAGGAUCACCCAUGUGAGGC [Eternabot (L1) Solution 65] (Eterna round: R97, puzzle: Exclusion 4)”: 245 nM and 69.9 nM. “UCAGUUAUGCGAGGAUAUCGACCUUUCCUCUUAACAUGAGGAUCACCCAUGUGCUAAUCCUUCAACGAGAAGGCGCUCAAACUC [JR_ExcNG2_Sub070] (Eterna round: R96, puzzle: Exclusion NG 2)”: the “apparent KD of MS2 coat protein” value is, setting by setting: (input ligand: FMN 200 uM) 260 nM; under setting [1], 170 nM; (input ligand: none) 209 nM.

On to “UCAUACGUUGAGGAUAUGUCAGUUAGAAUAUUUACAGAAGGCGAUACAUGAGGAUCACCCAUGUUUAUGGGCAU [Ex-6 Malc#5] (puzzle: Exclusion 6)”, for which the “apparent KD of MS2 coat protein” value under setting [2] is 173 nM.

Consider “UCAUACGUUGAGGAUAUGUCAGUUAGUAUAUUUACAGAAGGCGAUACAUGAGGAUCACCCAUGUUUAUGGGCAU [Ex-6 Malc#4] (puzzle: Exclusion 6)”, for which the “apparent KD of MS2 coat protein” value under setting [2] was 225 nM.

As to “UCAUGGGAGCGAGGAUAUAGCCCAUGUGAAGAACUAGAAGGCGCAGACAUGAGGAUCACCCAUGUGUUCAUGAGGAGGUGGACA (Eterna round: R96, puzzle: Exclusion NG 1)”, the “apparent KD of MS2 coat protein” value (input ligand: FMN 200 uM) was found to be 215 nM, the “apparent KD of MS2 coat protein” value under setting [1] was found to be 82.5 nM and the “apparent KD of MS2 coat protein” value (input ligand: none) amounted to 83.4 nM. On to “UCAUGGUAGCAGGAUAUGCUUGUUUUUUUUUUUGCAGAAGGGCUUACAUGAGGAUCACCCAUGUGUUAGGUCUA [JR_E6_Sub067] (puzzle: Exclusion 6)”, for which, under setting [2], the “apparent KD of MS2 coat protein” value is 27.6 nM. As for “UCCAGGCGAGGAUAUACAAAGAUUUUUUCGUUUUGUCUCGAACAUGAGGAUCACCCAUGUAGAAGGUGCUUCUG [JR_Ex2_Sub012] (Eterna round: R97, puzzle: Exclusion 2)”, the “apparent KD of MS2 coat protein” value by setting is: (input ligand: FMN 200 uM) 149 nM; (input ligand: none) 115 nM. As for “UCCGUGUCAGGAUAUGCUAGCGCAAAGUUGCCCGCGCUGUAGCAGAAGGGACAUGAGGAUCACCCAUGUCUACA [Exclusion 4 (Mod of Nando's EX4 C.10 cleaner dot)] (Eterna round: R97, puzzle: Exclusion 4)”, the “apparent KD of MS2 coat protein” value is, setting by setting: (input ligand: FMN 200 uM) 70.7 nM; (input ligand: none) 20.4 nM.

“UCCUAACAUGAGGAUCACCCAUGUGAGGAUAUGAUACUAUGUACUUCGGUACAUAGUAUCAGAAGGCACAUCCU [Ex1-3: 8] (puzzle: Exclusion 1)”: the “apparent KD of MS2 coat protein” value under setting [2] is 17.5 nM.

For “UCCUCACAUGAGGAUCACCCAUGUCAGGAUAUACCCAUCCAGCGAAAUUAAAGCUGUAGUAGAAGGGACAUGCA [Raertele] (Eterna round: R97, puzzle: Exclusion 1)”, the “apparent KD of MS2 coat protein” value is, setting by setting: (input ligand: FMN 200 uM) 40.4 nM; (input ligand: none) 20.1 nM. In the case of “UCCUGACAUGAGGAUCACCCAUGUAAGGAUAUUAAAACGACUGAACAACUCAGCGGUAUAAGAAGGUACAUGUA [EX1 A.10] (Eterna round: R97, puzzle: Exclusion 1)”, the “apparent KD of MS2 coat protein” value (input ligand: FMN 200 uM) worked out at 12 nM and the “apparent KD of MS2 coat protein” value (input ligand: none) is 14.4 nM.

In the case of “UCCUUACAUGAGGAUCACCCAUGUCAGGAUAUCUCCUCACUGCGCUUGCGCAGUGGAUAGAGAAGGGACGGGCU [JL ViennaUCT Aner mod 9] (puzzle: Exclusion 1)”, the “apparent KD of MS2 coat protein” value is, setting by setting: under setting [3], 32.3 nM; under setting [2], 27.1 nM; under setting [4], 32.8 nM. As to “UCCUUACAUGAGGAUCACCCAUGUCAGGAUAUCUCGGGCGGCUGAGGACCAGCCGCCCAGAGAAGGGACGAGGA [Dixeinis] (puzzle: Exclusion 1)”, the “apparent KD of MS2 coat protein” value by setting is: under setting [3], 38.6 nM; under setting [2], 23.1 nM; under setting [4], 31.3 nM. Regarding “UCCUUGUUAGGAUAUUGCCUGUGGGCUAAUCUGAAUACAGGUAAGAAGGGACAUGAGGAUCACCCAUGUGACAA [Eternabot (Original) Solution 32] (Eterna round: R97, puzzle: Exclusion 4)”, the “apparent KD of MS2 coat protein” value by setting is: (input ligand: FMN 200 uM) 39.3 nM; (input ligand: none) 28.8 nM. On to “UCGACCGGAGGAUAUCACGUAAAGUACAUGAGGAUCACCCAUGUGUGAUGACUCGAGUCGUGAGAAGGCCGAUAUG [Larausbeer] (puzzle: Exclusion 5)”, for which, under setting [2], the “apparent KD of MS2 coat protein” value came out at 65.8 nM. As for “UCGAGUGCUGAGGAUAUCUGCGAGUAAAGCUCAAGAGAAGGCAGUACAUGAGGAUCACCCAUGUGGAGCCUGUG [EX6 B.27] (Eterna round: R97, puzzle: Exclusion 6)”, the “apparent KD of MS2 coat protein” value was determined as 86.7 nM (input ligand: FMN 200 uM) and 21.6 nM (input ligand: none). “UCGAGUGGUUAGGAUAUCAUUGGUGCAUAUCAUUGAGAAGGAACUACAUGAGGAUCACCCAUGUGGCAGUGAUA [Abezaso] (Eterna round: R96, puzzle: Exclusion 6)”: the “apparent KD of MS2 coat protein” value is 152 nM (input ligand: FMN 200 uM), 26.4 nM under setting [1] and 31.9 nM (input ligand: none). In the case of “UCGAGUGGUUAGGAUAUCAUUGGUGCAUAUCAUUGAGAAGGAACUACAUGAGGAUCACCCAUGUGGCAGUGAUA [Abezaso] (puzzle: Exclusion 6)”, the “apparent KD of MS2 coat protein” value under setting [2] worked out at 23.9 nM. As for “UCGAUGUAAGGAUAUCGUGCAAGUUUCAAAAGAGGCUUGUGCGAGAAGGUACAUGAGGAUCACCCAUGUAGGUU [Omei Ex4 B7] (Eterna round: R97, puzzle: Exclusion 4)”, the “apparent KD of MS2 coat protein” value by setting is: (input ligand: FMN 200 uM) 207 nM; (input ligand: none) 75.6 nM. As for “UCGCUCCGUGUAGGAUAUCGCCGUACCACUCGGCGAGAAGGACAUGAGGAUCACCCAUGUAUGUUAUUAUCACGUGUGGCGCGC [Design 52] (Eterna round: R96, puzzle: Exclusion NG 1)”, the “apparent KD of MS2 coat protein” value by setting is: (input ligand: FMN 200 uM) 33.5 nM; under setting [1], 19 nM; (input ligand: none) 18.7 nM. The like results for “UCGCUCCGUGUAGGAUAUCGCCGUACGAUGCGGCGAGAAGGACAUGAGGAUCACCCAUGUAUGUUAUUAUCACGCGUGGCGCAA [Design 62] (Eterna round: R96, puzzle: Exclusion NG 1)” were, in that order, 21.3 nM, 11.3 nM and 16.5 nM. Regarding “UCGCUCCGUGUAGGAUAUCGCCGUUCUAUUCGGCGAGAAGGACAUGAGGAUCACCCAUGUAUGUUAUUAUCACGCGUGGCGCAA [Design 58] (Eterna round: R96, puzzle: Exclusion NG 1)”, under setting [1], the “apparent KD of MS2 coat protein” value was found to be 12.5 nM. On to “UCGCUGCGAGGAUAUACAUGAGGAUCACCCAUGUACGGGUCCGGGUUUGAGUUGAUGAGUAGAAGGCGCAGUGA [JL Laongeedie mod 13] (puzzle: Exclusion 3)”, for which the “apparent KD of MS2 coat protein” value under setting [2] came to 79.2 nM. Still for that read-out and setting: then “UCGCUGCGAGGAUAUACAUGAGGAUCACCCAUGUACGGGUCCGGGUUUUCGUCCAUUAGUAGAAGGCGCAGUGA [JL Laongeedie mod 1] (puzzle: Exclusion 3)”, with 136 nM; and “UCGCUGCGAGGAUAUACGUGCGCGCGCUCGCGUGCGCGCGUACAUGAGGAUCACCCAUGUAGAAGGCGCGCUGC [Apr-15 SS2-4] (puzzle: Exclusion 2)”, with 13.4 nM. In the case of “UCGCUGCGAGGAUAUACGUUUGCGCGCUUUCGUUUGCGCGUACAUGAGGAUCACCCAUGUAGAAGGCGCGCCGC [Apr-15 SS2-8] (puzzle: Exclusion 2)”, the “apparent KD of MS2 coat protein” value under setting [2] came out at 13.2 nM. “UCGGAUAGAGGAUAUACAUGAGGAUCACCCAUGUGGUCAAGCGGGUACGCCCAGCGAGGUAGAAGGCUAUCCGG [Eternabot (L1) Solution 16] (Eterna round: R97, puzzle: Exclusion 3)”: the “apparent KD of MS2 coat protein” value (input ligand: FMN 200 uM) is 407 nM and the “apparent KD of MS2 coat protein” value (input ligand: none) came to 136 nM.

For the sequence “UCGGCGCGAGGAUAUACGUUUGCGCGUUUUCGUUUUUGCGUACAUGAGGAUCACCCAUGUAGAAGGCGCGCCGC [Apr-15 SS2-16] (puzzle: Exclusion 2)”, the “apparent KD of MS2 coat protein” value under setting [2] was 11.4 nM. On the same count and under the same terms, under “UCGGCGCGAGGAUAUGCGGCUGGUGCUUCGGGCCCUCGCGUACAUGAGGAUCACCCAUGUAGAAGGCGCGCCGC [Apr-15 SS2-43] (puzzle: Exclusion 2)” stands 20.5 nM; under “UCGGCGCGAGGAUAUGCGGCUUGUGCUUCGGGCCCUCGCGUACAUGAGGAUCACCCAUGUAGAAGGCGCGCCGC [Apr-15 SS2-44] (puzzle: Exclusion 2)”, 53.8 nM; under “UCGGCGCGAGGAUAUGCGGUUUGUGCUUUGGGCCCUCGCGUACAUGAGGAUCACCCAUGUAGAAGGCGCGCCGC [Apr-15 SS2-46] (puzzle: Exclusion 2)”, 95.6 nM. Regarding “UCGGGAAGAGGAUAUACAUAGAAAUAGAUUCAUGUAAAACUACAUGAGGAUCACCCAUGUAGAAGGCUUUCCGU [Mat - Exclusion 2 - JL Mod - D55] (Eterna round: R97, puzzle: Exclusion 2)”, the “apparent KD of MS2 coat protein” value was found to be 146 nM (input ligand: FMN 200 uM) and 24.2 nM (input ligand: none).

Consider “UCGGUGCGAGGAUAUACGUUUGCGCGUUUUCGUUUGCGCGUACAUGAGGAUCACCCAUGUAGAAGGCGCGCGGC [Apr-15 SS2-12] (puzzle: Exclusion 2)”, for which the “apparent KD of MS2 coat protein” value under setting [2] came out at 11.8 nM.

In the case of “UCGUAGUCAGGAUAUACAUGAGGAUCACCCAUGUAAAAUUUUAAUUUAAUUUUAAGGUGUAGAAGGGACCAUUU [Ex3 #21] (Eterna round: R97, puzzle: Exclusion 3)”, the “apparent KD of MS2 coat protein” value by setting is: (input ligand: FMN 200 uM) 46.7 nM; (input ligand: none) 45.8 nM.
